From patent US20250304658A1 (ICAHN SCHOOL OF MEDICINE AT MOUNT SINAI, published 2025)
Changes are numbered by the printed parent chain.

T1: BK virus VP1 protein, genotype I (BK virus, UniProt P03088 1-362)
T1 sequence: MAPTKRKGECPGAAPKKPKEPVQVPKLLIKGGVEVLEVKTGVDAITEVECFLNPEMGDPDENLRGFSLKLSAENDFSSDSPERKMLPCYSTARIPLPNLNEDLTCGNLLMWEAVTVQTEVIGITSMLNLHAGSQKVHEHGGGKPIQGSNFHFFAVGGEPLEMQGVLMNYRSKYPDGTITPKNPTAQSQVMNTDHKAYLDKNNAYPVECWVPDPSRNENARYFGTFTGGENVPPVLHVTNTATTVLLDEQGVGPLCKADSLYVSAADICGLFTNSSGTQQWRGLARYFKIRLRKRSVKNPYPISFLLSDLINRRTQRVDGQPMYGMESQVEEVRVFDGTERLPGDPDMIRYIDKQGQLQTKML

B1: 6E1 (antibody, V domains shown)
VH: EVQLLESGGGLVQPGGSLRLSCAASGFTFSSFAMSWVRQAPGKGLEWVSGISGSGGSTYYADSVKGRFTISRDNSKNTLYLQMNSLRAEDTAIYYCAKDKRNWNYGIDSFDFWGQGTMVTVSS
VL: DIQMTQSPSSLSASVGGRVTITCRTSQSISGYLNWYQQKAGKAPKLLIYATSNLQSGVPSRFTGSGSGTDFTLTISSLQPEDFAAYYCHQSHSPPFTFGPGTKVAFK
B2: 2B9 (antibody, V domains shown)
VH: EVQLLESGGGLAQPGKSLRLSCAASGFTFSGFAMSWVRQAPGKGLEWVSGISGSGDITYYADSVKGRFTISRDNSKSTLYLQMNSLGAEDTAVYYCAKDPYNWNHGVYGMDVWGQGTTVTVSS
VL: DIQMTQSPSSLSASVGDRVTITCRASQSISSYLNWYQQKPGKAPKFLIYGASSLQSGVPSRFSGSGSGTDFTLTISSLQPEDFAAYYCQQSFNAPLTFGGGTKVEIK
B3: 7E5 (antibody, V domains shown)
VH: B2 VH with A12I, K16G, A61G, G87R, A88D, E89A, A97G
VL: B2 VL with S31T, T72S, Q79H, E81G, A85T, F92Y, A94I
B4: 4E6 (antibody, V domains shown)
VH: EVQLVESGGDLVQPGRSLRLSCAASGFTFDDYAMHWVRQGPGKGLEWVSGISWSGVTMGYADSVKGRFTISRDNAKNSLYLRMNSLRADDTAFYYCARGDGTNAFDIWGHGTMVTVSS
VL: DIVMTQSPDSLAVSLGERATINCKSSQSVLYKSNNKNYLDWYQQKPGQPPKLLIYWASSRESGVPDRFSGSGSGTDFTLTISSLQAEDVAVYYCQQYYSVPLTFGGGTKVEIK
B5: 2A10 (antibody, V domains shown)
VH: EVQLVQSGAEVKKPGESLKISCKGSGYSFTYYWIGWVRQMPGKGLEWMGIIYPGDSDTRYSPSFQGQVTISADKSISTAYLQWSSLKASDTAMYYCTTHARNWNNVAYWGQGTLVTVSS
VL: DIQMTQSPSSLSASVGDRLTITCRASQNINTFLNWYQQNPGKAPKVLIYAASSLESGVPSRFSGSGSGTDFTLTISSLQPEDFATYYCQQSSSTPWTFGQGTKVEIK
B6: 2F11 (antibody, V domains shown)
VH: B5 VH with Y31N, I70L, S84N, T97A, N102S, N105Y, S118A
VL: DIQMTQSPSSLSASVGDRVTITCRASQSVNNFLNWYQQKPGTAPKLLIYAASSLQGGVPSRFSGSGSGTDFTLTISSLQPEDFATYYCQQSNTTPWTFGQGTKVEIK
B7: 9H9 (antibody, V domains shown)
VH: EVQLVESGGGLVQPGGSLRLSCAASGFTFSSYEMNWVRQAPGKGLEWVSYISSGGSSIKYADSVRGRFTFSRDNAENSVHLQMNSLRGEDTAVYYCARVGGSYYYSYAMDVWGQGTAVTVSS
VL: DIQLTQSPSFLSASVGDRVTITCWASQDISSYLAWYQQKPGKAPKLLIYAASTLQSGVPSRFSGSGSGTEFTLTISSLQPEDFATYYCQQPNNYPFSFGPGTKVDVK

Target: BK virus VP1 protein, genotype III (BK virus)
Experiment: cell-based or functional assay

| Binder | EC50, pseudovirus neutralization |
| --- | --- |
| B1 | > 6.67 nM |
| B2 | 0.0808 nM |
| B3 | 0.415 nM |
| B4 | 0.0296 nM |
| B5 | 0.0024 nM |
| B6 | 0.0105 nM |
| B7 | 1.14 nM |

Target: T1, BK virus VP1 protein, genotype I
Experiment: cell-based or functional assay

| Binder | EC50, pseudovirus neutralization |
| --- | --- |
| B1 | 0.00295 nM |
| B3 | 0.0249 nM |
| B4 | > 6.67 nM |
| B5 | > 6.67 nM |
| B6 | > 6.67 nM |
| B7 | 0.0087 nM |

Target: BK virus VP1 protein, genotype IV (BK virus)
Experiment: cell-based or functional assay

| Binder | EC50, pseudovirus neutralization |
| --- | --- |
| B1 | 0.0095 nM |
| B2 | 0.148 nM |
| B3 | 0.133 nM |
| B4 | 0.0197 nM |
| B5 | 0.0015 nM |
| B6 | 0.0061 nM |
| B7 | > 6.67 nM |

Target: BK virus VP1 protein, genotype II (BK virus)
Experiment: cell-based or functional assay

| Binder | EC50, pseudovirus neutralization |
| --- | --- |
| B1 | > 6.67 nM |
| B2 | 0.154 nM |
| B3 | 1.16 nM |
| B4 | 0.0021 nM |
| B5 | 0.0094 nM |
| B6 | 0.0838 nM |
| B7 | 0.0083 nM |

Target: BK virus VP1 protein, genotype III (BK virus)
Experiment: cell-based or functional assay
Remark: another data set of the same source

| Binder | EC50, pseudovirus neutralization (mAb mixed with irrelevant isotype matched mAb M2) |
| --- | --- |
| B1 | > 6.67 nM |
| B2 | 0.0054 nM |
| B5 | 0.0064 nM |

Target: T1, BK virus VP1 protein, genotype I
Experiment: cell-based or functional assay
Remark: another data set of the same source

| Binder | EC50, pseudovirus neutralization (mAb mixed with irrelevant isotype matched mAb M2) |
| --- | --- |
| B1 | 0.00067 nM |
| B5 | > 6.67 nM |

Target: BK virus VP1 protein, genotype IV (BK virus)
Experiment: cell-based or functional assay
Remark: another data set of the same source

| Binder | EC50, pseudovirus neutralization (mAb mixed with irrelevant isotype matched mAb M2) |
| --- | --- |
| B1 | 0.0496 nM |
| B2 | 0.0108 nM |
| B5 | 0.0059 nM |

Target: BK virus VP1 protein, genotype II (BK virus)
Experiment: cell-based or functional assay
Remark: another data set of the same source

| Binder | EC50, pseudovirus neutralization (mAb mixed with irrelevant isotype matched mAb M2) |
| --- | --- |
| B1 | > 6.67 nM |
| B2 | 0.044 nM |
| B5 | 0.0557 nM |

Target: BK virus VP1 protein, genotype III (BK virus)
Experiment: cell-based or functional assay
Remark: another data set of the same source

| Binder | EC50, pseudovirus neutralization (mAb mixed with irrelevant isotype matched mAb M2) | EC50, pseudovirus neutralization |
| --- | --- | --- |
| B1 | > 2 nM | – |
| B2 | – | 0.0068 nM |
| B5 | 0.000654 nM | – |
| B6 | 0.0061 nM | – |

Target: T1, BK virus VP1 protein, genotype I
Experiment: cell-based or functional assay
Remark: another data set of the same source

| Binder | EC50, pseudovirus neutralization (mAb mixed with irrelevant isotype matched mAb M2) |
| --- | --- |
| B1 | 0.00078 nM |
| B5 | > 2 nM |
| B6 | > 2 nM |

Target: BK virus VP1 protein, genotype IV (BK virus)
Experiment: cell-based or functional assay
Remark: another data set of the same source

| Binder | EC50, pseudovirus neutralization (mAb mixed with irrelevant isotype matched mAb M2) | EC50, pseudovirus neutralization |
| --- | --- | --- |
| B1 | 0.021 nM | – |
| B2 | – | 0.0114 nM |
| B5 | 0.00072 nM | – |
| B6 | 0.00185 nM | – |

Target: BK virus VP1 protein, genotype II (BK virus)
Experiment: cell-based or functional assay
Remark: another data set of the same source

| Binder | EC50, pseudovirus neutralization (mAb mixed with irrelevant isotype matched mAb M2) | EC50, pseudovirus neutralization |
| --- | --- | --- |
| B1 | > 2 nM | – |
| B2 | – | 0.0613 nM |
| B5 | 0.0112 nM | – |
| B6 | 0.148 nM | – |
